Data reported in patent US20070004628A1 (SALK INSTITUTE FOR BIOLOGICAL STUDIES, published 2007).

Molecular target: T1, p75 (endogenous, mouse) (Mus musculus, UniProt Q9Z0W1 32-427)
T1 construct: Endogenous p75 of P7 mouse cerebellum and of cerebellar granule neurons; also called p75NTR
T1 sequence: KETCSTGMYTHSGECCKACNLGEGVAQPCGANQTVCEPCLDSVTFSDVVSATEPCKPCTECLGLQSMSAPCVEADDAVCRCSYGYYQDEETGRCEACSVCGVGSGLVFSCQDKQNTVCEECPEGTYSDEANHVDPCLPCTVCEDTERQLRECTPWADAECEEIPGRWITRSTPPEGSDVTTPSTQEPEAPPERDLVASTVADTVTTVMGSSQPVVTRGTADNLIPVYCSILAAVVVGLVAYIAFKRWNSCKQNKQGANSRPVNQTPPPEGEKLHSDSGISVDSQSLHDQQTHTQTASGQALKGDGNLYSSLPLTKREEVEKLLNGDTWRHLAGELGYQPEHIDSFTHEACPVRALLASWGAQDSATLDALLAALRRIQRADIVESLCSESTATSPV
Assay: immunoprecipitation of P7 mouse cerebellar proteins with anti-p45 antibodies, immunoblot with anti-p75 antibodies

binding result: binds
B1: full-length p45 (p45-FL) (receptor)
chain: MLYNVSKGVVYSDTALQGQDGDREGMWVGAGGALAPNTSSLFPPEPPGASSNIIPVYCALLATVILGLLAYVAFKCWRSHKQRQQLAKARTVELGDPDRDQRRGDSNVFVDSPPSLEPCIPSQGPHPDLGCQLYLHIPQQQQEEVQRLLMMGEPAKGWQELAGHLGYQAEAVETMACDQMPAYTLLRNWAAQEGNRATLRVLEDALAAIGREDVVQVLSSPAESSSVV
notes: Untagged full-length p45 expressed in HEK293 cells or from transfected capped RNA in CGNs; Also used here for endogenous p45 of P7 mouse cerebellum; also called PLAIDD; NRADD
